Source: article PMC2777681

Experiments:
[1] = biological target: full-length purified recombinant EWS-FLI1; test: co-IP
[2] = biological target: full-length purified recombinant EWS-FLI1; test: SPR

percent of the GST-RHA(647-1075)/EWS-FLI1 association left with 0.1 μM E9R [1]: 50% | response units at 32 μM E9R [2]: 13 R.U. | response units at 32 μM E9R with 10 μM YK-4-279 [2]: 5 R.U. | response units at 64 μM E9R [2]: 17 R.U. | response units at 64 μM E9R with 10 μM YK-4-279 [2]: 7 R.U.
Binder: PPPLDAVIEA [E9R peptide, Q08211 823-832]
